EC50 data for one molecule are collected here from US20230025732A1 (INNATE PHARMA, published 2023).

Test [1] deals with T1, human CD39 expressed at the cell surface (human, UniProt P49961 1-510).
T1 construct: On CHO transfectants, Hek-293T transfectants, Ramos and Mino tumor cells; also called huCD39; CHO-huCD39
T1 sequence: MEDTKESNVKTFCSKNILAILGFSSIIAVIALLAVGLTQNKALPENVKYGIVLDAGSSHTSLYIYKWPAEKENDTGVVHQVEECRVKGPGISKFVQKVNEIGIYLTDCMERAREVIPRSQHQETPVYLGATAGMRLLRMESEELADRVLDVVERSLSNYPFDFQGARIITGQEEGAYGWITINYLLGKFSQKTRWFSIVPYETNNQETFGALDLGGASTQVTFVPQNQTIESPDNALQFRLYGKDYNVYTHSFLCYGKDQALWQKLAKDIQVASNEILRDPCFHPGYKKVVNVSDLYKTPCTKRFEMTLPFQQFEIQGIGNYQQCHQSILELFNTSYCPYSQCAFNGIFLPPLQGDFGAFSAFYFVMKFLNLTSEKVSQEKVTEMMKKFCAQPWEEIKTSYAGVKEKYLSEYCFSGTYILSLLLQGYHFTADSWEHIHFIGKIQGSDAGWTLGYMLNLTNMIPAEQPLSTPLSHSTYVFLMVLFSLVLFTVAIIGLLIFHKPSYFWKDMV
Description: flow cytometry, Ramos lymphoma cells, first set of experiments; Ramos cells, first set of experiments. Here is the method:
(§1) Cells were incubated with various concentration of unlabeled anti-CD39 antibody from 30 μg/ml to 5×10⁻⁴ μg/ml, for 30 minutes at 4° C. After washes, cells were incubated with Goat anti-mouse H+L labeled secondary antibody for 30 min at 4° C.

Test [2] deals with T1, human CD39 expressed at the cell surface. Put plainly: flow cytometry, Ramos lymphoma cells, second set of experiments; Ramos cells, second set of experiments. Here is the method: as §1
Background: In flow cytometry, cells or beads pass a laser one at a time.

B1: I-394 (antibody, human IgG1, V domains shown)
VH: EVQLQQSGPELVKPGASVKMSCKASGYTFTDYNMHWVKQSHGRTLEWIGYIVPLNGGSTFNQKFKGRATLTVNTSSRTAYMELRSLTSEDSAAYYCARGGTRFAYWGQGTLVTVSA
VL: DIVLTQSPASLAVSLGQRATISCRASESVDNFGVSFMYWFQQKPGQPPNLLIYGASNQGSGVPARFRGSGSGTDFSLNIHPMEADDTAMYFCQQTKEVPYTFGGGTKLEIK
As to B1, the figures for the EC50 in test [1] and in test [2] were 0.16 µg/mL and 0.19 µg/mL, respectively.

By EC50 is commonly meant the midpoint of the concentration-response curve. A high value points to a less potent agent.
